± gives the uncertainty stated by the source.
Test: self-splicing fitness, log relative to wild type (ln ratio); higher = more splicing; Tetrahymena group I intron in knt gene, E. coli kanamycin selection, DiMSum; sequences stand for … in CUCUCU…GGAGGGAAAAGUUAUCAGGCAUGCACCUGGUAGCUAGUCUUUAAACCAAUAGAUUGCAUCGGUUUAAAAGGCAAGACCGUCAAAUUGCGGGAAAGGGGUCAACAGCCGUUCAGUACCAAGUCUCAGGGGAAACUUUGAGAUGGCCUUGCAAAGGGUAUGGUAAUAAGCUGACGGACAUGGUCCUAACCACGCAGCCAAGUCCUAAGUCAACAGAUCUUCUGUUGAUAUGGAUGCAGUUCACAGACUAAAUGUCGGUCGGGGAAGAUGUAUUCUUCUCAUAAGAUAUAGUCGGACCUCUCCUUAAUGGGAGCUAGCGGAUGAAGUGAUGCAACACUGGAGCCGCUGGGAACUAAUUUGUAUGCGAAAGUAUAUUGAUUAGUUUUGGAGUACUCGUGGUCG
Procedure, shortened: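 Six replicate transformations of E. coli BL21(DE3) with a pET-22b(+) library were grown overnight at 37°C or 30°C. The library randomised all eight P1ex-region intron nucleotides, the intron lying in the knt kanamycin-resistance gene, and plates were LB agar with or without 25 μg/mL kanamycin plus 100 μg/mL carbenicillin, 50 μM IPTG and 0.2% rhamnose. Pooled colonies were amplicon-sequenced on an Illumina HiSeq 2500, and fitness is the DiMSum error-weighted combination of wild-type-normalised replicate fold changes, kanamycin versus none.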

Sequence	self-splicing fitness (ln) (30 °C)	self-splicing fitness (ln) (37 °C)
UGACAGCAAUAUUACGUUAA	-0.645 ± 0.1	-1.16 ± 0.09
UGACAGCAAUAUUACGUUAG	-1.01 ± 0.066	-0.987 ± 0.089
UGACAGCAAUAUUACGUUAU	-3.65 ± 0.19	-3.04 ± 0.21
UGACAGCAAUAUUACGUUUC	-1.65 ± 0.29	-1.5 ± 0.33
UGAGAGCAAUAUUACGAAUG	-2.97 ± 0.36	-1.09 ± 0.46
UGAGAGCAAUAUUACGAAUU	-3.84 ± 0.16	-2.79 ± 0.17
UGAGAGCAAUAUUACGACAU	-3.847 ± 0.037	-2.82 ± 0.048
UGAGAGCAAUAUUACGAGCC	-1.9 ± 0.33	
UGAGAGCAAUAUUACGAGCU		-2.53 ± 0.49
UGAGAGCAAUAUUACGAUAG	-3.19 ± 0.38	-2.11 ± 0.26
UGAGAGCAAUAUUACGAUGG	-3.59 ± 0.23	-2.72 ± 0.2
UGAGAGCAAUAUUACGAUUG	-2.57 ± 0.27	-1.14 ± 0.27
UGAGAGCAAUAUUACGCUGG	-3.87 ± 0.22	-2.67 ± 0.25
UGAGAGCAAUAUUACGGAAG	-3.67 ± 0.23	-2.2 ± 0.31
UGAGAGCAAUAUUACGGUUA	-1.14 ± 0.23	-1.11 ± 0.21
UGAGAGCAAUAUUACGGUUU	-2.16 ± 0.4	
UGAGAGCAAUAUUACGUAGG	-2.48 ± 0.35	-1.12 ± 0.41
UGAGAGCAAUAUUACGUCUG	-2.76 ± 0.42	-1.88 ± 0.33
UGAGAGCAAUAUUACGUGCC		-2.99 ± 0.43
UGAGAGCAAUAUUACGUGGA	-3.18 ± 0.28	-2.95 ± 0.47
UGAGAGCAAUAUUACGUUAC		-1.79 ± 0.3
UGAGAGCAAUAUUACGUUCA	-0.924 ± 0.12	-0.794 ± 0.12
UGAGAGCAAUAUUACGUUUA	-3.46 ± 0.39	
UGAUAGCAAUAUUACGACGG	-1.4 ± 0.19	0.124 ± 0.18
UGAUAGCAAUAUUACGACGU	-2.71 ± 0.24	-1.17 ± 0.37

Sequence	self-splicing fitness (ln) (30 °C)	self-splicing fitness (ln) (37 °C)
UGAUAGCAAUAUUACGAGCU	-1.44 ± 0.15	-0.828 ± 0.17
UGAUAGCAAUAUUACGAUCU	0.499 ± 0.12	0.105 ± 0.16
UGAUAGCAAUAUUACGAUGA	-0.925 ± 0.15	-0.791 ± 0.12
UGAUAGCAAUAUUACGCCAG	-1.59 ± 0.23	-0.994 ± 0.49
UGAUAGCAAUAUUACGCCGA	-2.91 ± 0.32	-1.28 ± 0.18
UGAUAGCAAUAUUACGCGCC	-1.82 ± 0.36	0.00337 ± 0.21
UGAUAGCAAUAUUACGCGUA	-1.74 ± 0.13	-0.96 ± 0.13
UGAUAGCAAUAUUACGGAAG	-1.99 ± 0.14	-1.64 ± 0.21
UGAUAGCAAUAUUACGGGGA	-3.16 ± 0.39	-1.8 ± 0.26
UGAUAGCAAUAUUACGGGUA	-1.74 ± 0.12	-1.81 ± 0.14
UGAUAGCAAUAUUACGGUCG	-0.332 ± 0.098	-0.477 ± 0.1
UGAUAGCAAUAUUACGUAUG	-1.1 ± 0.16	-0.567 ± 0.16
UGAUAGCAAUAUUACGUUGA	-3.42 ± 0.19	-1.91 ± 0.14
UGAUAGCAAUAUUACGUUGU	-4.45 ± 0.29	-2.98 ± 0.21
UGCAAGCAAUAUUACGAAAA	-2.32 ± 0.28	-1.64 ± 0.17
UGCAAGCAAUAUUACGAAGC		-1.87 ± 0.4
UGCAAGCAAUAUUACGACUC	-2.66 ± 0.18	-1.56 ± 0.17
UGCAAGCAAUAUUACGAGAC	-4.03 ± 0.46	-2.05 ± 0.34
UGCAAGCAAUAUUACGAGCA	-2.28 ± 0.15	-1.39 ± 0.12
UGCAAGCAAUAUUACGAGGA	-3.28 ± 0.26	-0.992 ± 0.14
UGCAAGCAAUAUUACGAUCC	-1.21 ± 0.14	-0.955 ± 0.2
UGCAAGCAAUAUUACGAUCU	-0.477 ± 0.091	-0.822 ± 0.1
UGCAAGCAAUAUUACGAUGC	-3.55 ± 0.3	
UGCAAGCAAUAUUACGCAGA	-1.92 ± 0.16	-1.75 ± 0.15
UGCAAGCAAUAUUACGCCAC		-3.58 ± 0.42

Sequence	self-splicing fitness (ln) (30 °C)	self-splicing fitness (ln) (37 °C)
UGCAAGCAAUAUUACGCCAG	-2.88 ± 0.19	-1.9 ± 0.26
UGCAAGCAAUAUUACGCCUA	0.231 ± 0.073	0.0781 ± 0.075
UGCAAGCAAUAUUACGCGAC	-3.46 ± 0.19	-2.65 ± 0.23
UGCAAGCAAUAUUACGCGCG	-1.84 ± 0.13	-0.733 ± 0.17
UGCAAGCAAUAUUACGCUGC	-3.62 ± 0.29	-2.4 ± 0.3
UGCAAGCAAUAUUACGCUUU	-3.45 ± 0.21	-1.85 ± 0.2
UGCAAGCAAUAUUACGGCAA	0.111 ± 0.12	-0.447 ± 0.12
UGCAAGCAAUAUUACGGCAC	-3.59 ± 0.4	-3.28 ± 0.33
UGCAAGCAAUAUUACGGUCU	-0.647 ± 0.07	0.283 ± 0.082
UGCAAGCAAUAUUACGUAGU	-3.83 ± 0.18	-2.42 ± 0.17
UGCAAGCAAUAUUACGUAUC	-3.22 ± 0.2	-1.14 ± 0.15
UGCAAGCAAUAUUACGUCGU	-3.58 ± 0.22	-1.81 ± 0.17
UGCAAGCAAUAUUACGUUAA	-2.27 ± 0.13	-0.494 ± 0.1
UGCAAGCAAUAUUACGUUUA	-1.49 ± 0.076	-0.234 ± 0.072
UGCCAGCAAUAUUACGAAGC	-3.74 ± 0.22	-1.91 ± 0.18
UGCCAGCAAUAUUACGAAGU	-2.88 ± 0.22	-2.97 ± 0.23
UGCCAGCAAUAUUACGAAUU	-3.68 ± 0.26	-3.3 ± 0.24
UGCCAGCAAUAUUACGACUA	-0.442 ± 0.1	-0.0497 ± 0.1
UGCCAGCAAUAUUACGCACU	-2.03 ± 0.069	-0.315 ± 0.066
UGCCAGCAAUAUUACGCCCG	-0.317 ± 0.12	0.404 ± 0.14
UGCCAGCAAUAUUACGCCUA	-0.546 ± 0.074	0.0605 ± 0.087
UGCCAGCAAUAUUACGCGAC	-2.62 ± 0.3	-0.608 ± 0.23
UGCCAGCAAUAUUACGCGAU	-2.42 ± 0.17	-1.88 ± 0.23
UGCCAGCAAUAUUACGCGUU	-1.67 ± 0.069	-0.989 ± 0.082
UGCCAGCAAUAUUACGGAAG	-2.55 ± 0.073	-1.42 ± 0.071

Sequence	self-splicing fitness (ln) (30 °C)	self-splicing fitness (ln) (37 °C)
UGCCAGCAAUAUUACGGAGU	-4.74 ± 0.27	-1.34 ± 0.13
UGCCAGCAAUAUUACGGAUC	-3.04 ± 0.22	-1.13 ± 0.17
UGCCAGCAAUAUUACGGCUU	-0.887 ± 0.098	-0.247 ± 0.11
UGCCAGCAAUAUUACGGGCC	-3.23 ± 0.21	-1.73 ± 0.2
UGCCAGCAAUAUUACGGUUC	-3.35 ± 0.2	-1.81 ± 0.14
UGCCAGCAAUAUUACGGUUU	-0.471 ± 0.075	-0.237 ± 0.096
UGCCAGCAAUAUUACGUAGG	-3.34 ± 0.25	-0.145 ± 0.17
UGCCAGCAAUAUUACGUCCC	-2.89 ± 0.31	-1.71 ± 0.43
UGCCAGCAAUAUUACGUCUG	-2.57 ± 0.15	-1.48 ± 0.16
UGCCAGCAAUAUUACGUGAC	-3.43 ± 0.16	-3.2 ± 0.22
UGCCAGCAAUAUUACGUGUC	-3.01 ± 0.19	-1.04 ± 0.13
UGCCAGCAAUAUUACGUUAU	-3.98 ± 0.2	-0.982 ± 0.12
UGCCAGCAAUAUUACGUUCA	-0.171 ± 0.059	-0.0317 ± 0.089
UGCCAGCAAUAUUACGUUCG	-0.361 ± 0.07	0.136 ± 0.089
UGCCAGCAAUAUUACGUUGG	-3.91 ± 0.18	-2.22 ± 0.15
UGCGAGCAAUAUUACGAAAA	-1.24 ± 0.27	
UGCGAGCAAUAUUACGAAUG	-2.77 ± 0.18	-2.43 ± 0.23
UGCGAGCAAUAUUACGACAU	-3.628 ± 0.028	-2.26 ± 0.039
UGCGAGCAAUAUUACGACCU	-0.697 ± 0.18	-0.146 ± 0.2
UGCGAGCAAUAUUACGACGA	-1.13 ± 0.13	-0.458 ± 0.13
UGCGAGCAAUAUUACGAGGU	-1.68 ± 0.19	-2.24 ± 0.28
UGCGAGCAAUAUUACGCAAG	-2.27 ± 0.27	
UGCGAGCAAUAUUACGCCAU		-2.45 ± 0.49
UGCGAGCAAUAUUACGCCCU	-0.783 ± 0.39	

Source: the supplement of paper PMC7877785
